Our source for the Kd, koff and kon values is US20200291112A1.

For this assay, the target named is Human GPA33 (Novoprotein), recombinant protein immobilized on CM5 chips (human) (UniProt Q99795). The assay can be described thus: SPR (Biacore T100), GPA33 recombinant protein immobilized on CM5 chip, antibody flowed over. In general terms: SPR reads the build-up and loss of mass on a sensor chip optically.
Chain of Human GPA33 (Novoprotein), recombinant protein immobilized on CM5 chips (human) (Q99795 22-235 limits assumed): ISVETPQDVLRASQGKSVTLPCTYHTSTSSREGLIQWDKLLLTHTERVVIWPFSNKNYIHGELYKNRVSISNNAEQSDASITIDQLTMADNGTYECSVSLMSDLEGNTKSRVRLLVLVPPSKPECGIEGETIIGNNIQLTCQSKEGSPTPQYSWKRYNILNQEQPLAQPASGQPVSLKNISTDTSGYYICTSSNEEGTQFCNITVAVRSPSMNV

What is called Kd is a measure of binding affinity in units of concentration. What is called koff is a measure of how fast the partners let go of each other. The kon is the second-order rate constant of association. As for “hA33-mC825 BsAb (original humanized hA33 in hA33-mC825 bispecific format, Cheal et al. 2016) (bispecific antibody)”, the equilibrium dissociation constant (Kd) was 1.59 nM, the koff amounted to 0.00294 s⁻¹ and the on-rate (kon) stood at 1.85e+06 M⁻¹ s⁻¹.
